This passage reports Kd results from PMC7717565 (PLoS Biology, 2020).

The target of the assay is Rabbit skeletal muscle α-actin, filamentous (F-actin) (rabbit, UniProt P68135 1-377). Conditions: both partners purified.

B1: E16R Lifeact–mCherry (peptide)
chain: MGVADLIKKFESISKRE
notes: One of the plasmids 2479, 2556, 2557, 2558; also called E16R Lifeact variant; source: E. coli BL21-CodonPlus(DE3)-RIPL, purified (Protino Ni-IDA resin, dialysis)
As for B1, binding was put at a Kd of 6 ± 0.7 µM.

B2: E17K Lifeact–mCherry (peptide)
chain: MGVADLIKKFESISKEK
notes: Lifeact (17 N-terminal residues of yeast ABP140) with E17K, fused to mCherry; One of the plasmids 2479, 2556, 2557, 2558; also called E17K variant of Lifeact; source: E. coli BL21-CodonPlus(DE3)-RIPL, purified (Protino Ni-IDA resin, dialysis)
For B2, the Kd (usually the concentration at which binding is half-saturated) came out at 8.1 ± 0.6 µM.
